The values that follow come from publication PMC4001774.

This test deals with CaM-GST on Sepharose beads (UniProt P0DP23). As to the kind of experiment: pull-down.

CaMKIIα-Venus, sequence (P11275 whole entry): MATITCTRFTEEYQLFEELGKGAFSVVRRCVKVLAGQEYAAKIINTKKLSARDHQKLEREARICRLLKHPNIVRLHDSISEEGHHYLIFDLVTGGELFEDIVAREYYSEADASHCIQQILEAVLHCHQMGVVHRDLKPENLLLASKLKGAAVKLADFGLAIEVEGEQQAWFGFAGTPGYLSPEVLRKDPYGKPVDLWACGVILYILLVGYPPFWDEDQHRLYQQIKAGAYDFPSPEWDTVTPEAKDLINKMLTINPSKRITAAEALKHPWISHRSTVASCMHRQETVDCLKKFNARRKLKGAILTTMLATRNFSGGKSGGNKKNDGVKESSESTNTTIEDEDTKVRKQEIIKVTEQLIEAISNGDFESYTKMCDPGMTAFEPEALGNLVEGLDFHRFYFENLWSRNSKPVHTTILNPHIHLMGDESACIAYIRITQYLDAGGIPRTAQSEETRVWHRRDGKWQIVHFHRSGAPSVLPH
human Ano1(ac) (natural protein), sequence (Q5XXA6 whole entry): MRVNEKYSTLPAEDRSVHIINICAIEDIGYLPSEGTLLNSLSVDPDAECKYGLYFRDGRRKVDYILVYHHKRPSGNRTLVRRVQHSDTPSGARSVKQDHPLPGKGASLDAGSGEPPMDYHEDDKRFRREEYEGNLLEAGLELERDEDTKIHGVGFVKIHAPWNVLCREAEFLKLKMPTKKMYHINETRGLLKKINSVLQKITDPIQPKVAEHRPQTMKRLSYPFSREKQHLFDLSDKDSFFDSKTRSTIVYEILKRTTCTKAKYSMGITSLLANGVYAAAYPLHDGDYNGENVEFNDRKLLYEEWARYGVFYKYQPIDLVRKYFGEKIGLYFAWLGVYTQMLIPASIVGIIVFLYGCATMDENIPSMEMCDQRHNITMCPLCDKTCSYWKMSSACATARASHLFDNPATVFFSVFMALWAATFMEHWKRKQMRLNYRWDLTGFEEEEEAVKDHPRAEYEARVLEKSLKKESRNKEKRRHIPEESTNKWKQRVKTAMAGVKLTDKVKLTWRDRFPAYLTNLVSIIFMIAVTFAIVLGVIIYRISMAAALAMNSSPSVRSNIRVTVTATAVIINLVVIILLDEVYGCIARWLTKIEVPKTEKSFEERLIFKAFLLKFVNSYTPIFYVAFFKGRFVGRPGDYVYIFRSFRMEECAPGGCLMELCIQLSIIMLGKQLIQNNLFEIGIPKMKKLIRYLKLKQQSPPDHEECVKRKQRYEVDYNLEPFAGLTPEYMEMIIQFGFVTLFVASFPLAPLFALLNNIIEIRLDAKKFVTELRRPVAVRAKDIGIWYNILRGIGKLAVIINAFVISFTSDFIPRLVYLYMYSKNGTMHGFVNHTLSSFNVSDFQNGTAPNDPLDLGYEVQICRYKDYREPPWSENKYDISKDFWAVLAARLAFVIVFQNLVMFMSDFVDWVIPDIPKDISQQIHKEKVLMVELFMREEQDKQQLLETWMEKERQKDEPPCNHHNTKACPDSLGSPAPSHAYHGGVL
mAno1-FLAG(3X), sequence (Q8BHY3 whole entry): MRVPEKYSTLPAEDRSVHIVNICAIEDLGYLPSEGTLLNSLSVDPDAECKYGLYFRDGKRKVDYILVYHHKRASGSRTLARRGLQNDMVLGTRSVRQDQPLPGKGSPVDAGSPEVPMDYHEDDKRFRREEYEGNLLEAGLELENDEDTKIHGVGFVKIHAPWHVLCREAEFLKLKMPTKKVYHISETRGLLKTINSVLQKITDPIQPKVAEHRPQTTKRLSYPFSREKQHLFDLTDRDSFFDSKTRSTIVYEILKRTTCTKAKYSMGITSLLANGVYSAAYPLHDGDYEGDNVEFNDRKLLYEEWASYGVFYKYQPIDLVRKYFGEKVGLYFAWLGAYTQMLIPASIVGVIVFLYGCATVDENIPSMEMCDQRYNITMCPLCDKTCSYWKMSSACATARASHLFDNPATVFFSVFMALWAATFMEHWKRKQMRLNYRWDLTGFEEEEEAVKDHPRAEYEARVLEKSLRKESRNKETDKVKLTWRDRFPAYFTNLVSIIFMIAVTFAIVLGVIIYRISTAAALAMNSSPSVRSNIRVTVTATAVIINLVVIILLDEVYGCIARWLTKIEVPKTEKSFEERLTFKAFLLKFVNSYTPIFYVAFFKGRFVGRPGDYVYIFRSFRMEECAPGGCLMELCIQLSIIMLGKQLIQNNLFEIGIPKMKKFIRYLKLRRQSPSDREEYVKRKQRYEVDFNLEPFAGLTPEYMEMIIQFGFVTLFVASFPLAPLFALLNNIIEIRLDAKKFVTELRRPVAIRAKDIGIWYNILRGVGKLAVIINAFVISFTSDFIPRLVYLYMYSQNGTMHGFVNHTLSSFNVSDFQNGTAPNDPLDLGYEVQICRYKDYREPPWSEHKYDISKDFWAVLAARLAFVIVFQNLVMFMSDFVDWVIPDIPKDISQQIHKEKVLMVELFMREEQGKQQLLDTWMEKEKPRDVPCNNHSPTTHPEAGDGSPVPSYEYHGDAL

With “CaMKIIα-Venus (from UniProt P11275 1-478) (enzyme)”, the fold bound with Ca2+ over without Ca2+ came out at 10 fold and the percent of the protein in the lysate that bound was found to be 100%.

The substance human Ano1(ac) (natural protein) yielded a fold bound with Ca2+ over without Ca2+ of 2 fold and a percent of the protein in the lysate that bound of under 1%.

Substance “mAno1-FLAG(3X) (from UniProt Q8BHY3 1-960) (natural protein)” returned a percent of the protein in the lysate that bound of under 1%.
